Assay results: patent publication US11279941B2, “Method for introducing protein into plant cell” (RIKEN, priority 2016, dated 2022)

B1: ADH-RhB: alcohol dehydrogenase (150 kDa) labeled with rhodamine B isothiocyanate, 6 RhB molecules per ADH (conjugate)
chain: SIPETQKGVIFYESHGKLEYKDIPVPKPKANELLINVKYSGVCHTDLHAWHGDWPLPVKLPLVGGHEGAGVVVGMGENVKGWKIGDYAGIKWLNGSCMACEYCELGNESNCPHADLSGYTHDGSFQQYATADAVQAAHIPQGTDLAQVAPILCAGITVYKALKSANLMAGHWVAISGAAGGLGSLAVQYAKAMGYRVLGIDGGEGKEELFRSIGGEVFIDFTKEKDIVGAVLKATDGGAHGVINVSVSEAAIEASTRYVRANGTTVLVGMPAGAKCCSDVFNQVVKSISIVGSYVGNRADTREALDFFARGLVKSPIKVVGLSTLPEIYEKMEKGQIVGRYVVDTSK

Legend:
[1] = Hydrodynamic diameter and PDI by dynamic light scattering (DLS); type: physicochemical; settings: protein not forming the complex (no carrier peptide)
Procedure: (§1) A solution of 1.0 g/l of the peptide ((BP100)2K or BP100(KH)9) was mixed with 2 μg of the protein (the BSA-RhB conjugate) at various peptide/protein molar ratios (1, 5, 10, and 25) at 25° C. for about 5 minutes to prepare carrier peptide/protein complexes, and the resultants were diluted to the final volume of 100 μl with autoclaved ultrapure water (MilliQ water). Thereafter, 10 µl of the solution was taken and further diluted to the final volume of 100 μl. The average hydrodynamic diameter of the complexes was measured via dynamic light scattering (DLS) using Zetasizer Nano-ZS (Malvern Instruments, Ltd., Worcestershire, U.K.). Polydispersion indexes (PDI) were determined with the zeta nanosizer (Zetasizer software ver 6.20) using He—Ne laser (633 nm) at 25° C. and a backscattering detection angle of 173°. Thereafter, the sample was further diluted to the total volume of 750 μl with autoclaved ultrapure water (MilliQ water), and the zeta potential was analyzed via laser Doppler microelectrophoresis using Zetasizer Nano-ZS. The zeta potential and zeta shift of the samples were measured three times and the average was determined with Zetasizer software ver 6.20.

[2] = Zeta potential by laser Doppler microelectrophoresis; type: physicochemical; settings: protein not forming the complex (no carrier peptide)
Procedure: as §1

[3] = test system: YFP-expressing Arabidopsis thaliana leaf; assay: Quantification of peptide delivery efficiency (protein extracted from contacted leaf, PAGE fluorescence); type: in vivo; settings: 6 hours after contact; for peptide/protein molar ratio at which the amount of the collected protein was the greatest: BSA-RhB
Procedure: (§2) About 100 μl of the solution of the carrier peptide/protein complex (the (BP100)2K/BSA-RhB or BP100(KH)9/BSA-RhB complex) prepared in Example 1 was brought into direct contact with an YFP-expressing Arabidopsis thaliana leaf at various peptide/protein molar ratios (1, 5, 10, and 25) with a needleless syringe. Also, about […] of the solution of the carrier peptide/protein complex (the (BP100)2Ks/ADH-RhB complex) prepared in Example 1 was brought into direct contact with an YFP-expressing Arabidopsis thaliana leaf at the peptide/protein molar ratio of 10.
A transgenic YFP-expressing Arabidopsis thaliana leaf was collected 6 hours after bringing it into contact with the (BP100)2K8/BSA-RhB or BP100(KH)9/BSA-RhB complex, and the leaf was washed 2 times with PBS (D-PBS(−), Wako Pure Chemical Industries Ltd., Osaka, Japan) to remove excess BSA-RhB on the leaf surface. Total crude protein extracted from the contacted leaf with 1× lysis buffer (Promega, Madison, U.S.A.) was subjected to 4 to 15% tris-glycine-sodium dodecyl sulfate (SDS)-polyacrylamide gel electrophoresis (PAGE) (Bio-rad, California, U.S.A.) at a constant voltage of 100 V. Thereafter, the BSA-RhB fluorescence was detected at the excitation light of 520 nm and the emission light of 605 nm with the Luminoimage analyzer (LAS-3000, Fujifilm Corporation, Tokyo, Japan). After detecting the fluorescence, the gel was stained with Coomassie blue G250 (Bio-rad, California, U.S.A.) to detect the Rubisco large subunit. The BSA-RhB fluorescence band density and the Coomassie blue-stained rbcL band density were quantified using Image J64 (NIH, Bethesda, Md.), and the BSA-RhB band density was normalized against the rbcL band density. SDS-PAGE was performed again based on the normalized data. The volume of the subjected crude protein in each sample was adjusted, in such a manner that the band density of Coomassie blue-stained rbcL bands would be equivalent to each other among all the tested samples, so as to attain the BSA-RhB band having the normalized fluorescence intensity. […] The total amount of the BSA-RhB protein collected from the contacted leaf was calculated in accordance with the formulae below.
The total amount (μg) of the BSA-RhB protein extracted per contacted leaf=(the amount (μg) of the protein corresponding to the RhB intensity measured per lane of the gel/the volume (μl) of the subjected crude protein per lane of the gel)×the total volume (l) of the extracted crude protein. […]
The obtained data are shown as the mean the standard deviation (SD) of the three tests. […] A statistic difference was determined at a statistic significance of p<0.05 via analysis of variance (ANOVA) and the Tukey's honestly significant difference (HSD) test.

[4] = test system: YFP-expressing Arabidopsis thaliana leaf; assay: Incorporation of carrier peptide/protein complex into cells (CLSM); type: in vivo; settings: ADH-RhB alone, absence of carrier peptide, data not shown
Procedure: as §2
Incorporation of proteins into cells was quantitatively assayed using a confocal laser scanning microscope (CLSM, Carl Zeiss, Oberkochen, Germany). Intracellular delivery of the peptide/BSA-RhB complex or the peptide/ADH-RhB complex to an YFP-expressing Arabidopsis thaliana leaf was observed by detecting the YFP fluorescence at the excitation light of 488 nm and detecting the RhB fluorescence at the excitation light of 555 nm.

Molecule	Hydrodynamic diameter [1] [nm]	Zeta potential [2] [mV]	BSA-RhB extracted from the leaf ([3]; with or without carrier peptide)	peptide/protein molar ratio at which the amount of the collected protein was the greatest [3]	protein delivery capacity (BSA-RhB extracted from leaf) ([3]; all peptide/protein molar ratios (1-25))	ADH-RhB signal in leaf [4]
BSA-RhB: bovine serum albumin labeled with rhodamine B isothiocyanate, 4 RhB molecules per BSA [reference compound]	92±2	−35.3±1.5	extracted from the leaf only when the carrier peptide was used			
KKLFKKILKYLKHKHKHKHKHKHKHKHKH (SEQ ID NO: 24) [BP100(KH)9, carrier peptide]				5		
KKLFKKILKYLKKLFKKILKYLKKKKKKKK (SEQ ID NO: 23) [(BP100)2K8, carrier peptide, fusion of BP100 and oligolysine]				10	superior to that of the BP100(KH)9 fusion peptide	
B1	168±7	−43.1±1.1				not detected
